Data: the supplement of paper PMC11865577

Legend:
Experiment in all cases: pull-down binding Z-score (relative to library population); higher = stronger binding
Details in all cases: RNA library: Library-2
[1] = test system: TO-3-N3-2 (biotin conjugate)
In short: (§1)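 An RNA library (1 μg) carrying a Cy5 or Cy3 end label was heat-folded in phosphate/NaCl/KCl buffer, then incubated for 60 min at 25 °C with streptavidin beads loaded with 100 pmol of biotin-conjugated small molecule. The beads were washed three times, and bound RNA was released in hot SDS and hybridised to a DNA barcode microarray for 20 h at 55.5 °C. Each binding score was derived by subtracting the signal from beads without compound, averaging the barcoded replicate probes after removing the highest and lowest, and expressing the result as a Z-score relative to the library mean and standard deviation.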

[2] = test system: TO-N3-2 (biotin conjugate)
In short: as §1

[3] = test system: TO-N3 (biotin conjugate)
In short: as §1

[4] = test system: TO-3-N3 (biotin conjugate)
In short: as §1

Sequence | pull-down binding Z-score [1] | pull-down binding Z-score [2] | pull-down binding Z-score [3] | pull-down binding Z-score [4]
GGUUUAACUUCUAUUAAAUGGGCAGAUAACAACUGUUAUCUUGCCACUGCAUUGUUAACACUCCAACAAAUAGAGUUGAAGUUUAAUCC | -0.273 | -0.63 | -0.793 | -0.726
GGUUUAGCUGCUGUUAAUAGUGUCCCUUGGGAUACUAUAGCUAAUUAUGCUAAGCC | -0.323 | -0.225 | 0.141 | 0.621
GGUUUAUACCUUCCCAGGUAACAAACC | -0.582 | -1.05 | -0.928 | -0.697
GGUUUGUUACAGACACACC [SHAPE_invivo_SARS-CoV-2_Motif_243] | -0.488 | -0.785 | -0.748 | -0.427
GGUUUGUUGCC [IAV_invivo_PB1_2_Motif_26+IAV_invivo_PB1_2_Motif_26] | -0.261 | -0.374 | -0.146 | 0.00909
GGUUUUAUAGCUGGCUUGAUUGCCAUAGUAAUGGUGACAAUUAUGCUUUGCUGUAUGACC | -0.541 | -0.582 | -0.717 | -0.96
GUAAAUUUACUUAC [DMSMaPseq_invitro_SARS-CoV-2_Motif_170] | -0.105 | -0.635 | 0.563 | 0.655
GUAAGAGAAUUCCUUAC | -0.0559 | -0.727 | -0.531 | -0.366
GUAAUGAUCCAUUUUUGGGUGUUUAUUAC [DMSMaPseq_invitro_SARS-CoV-2_Motif_387] | -0.129 | -0.998 | -0.308 | -0.1
GUACAUACAGCUAAUAAAUGGGAUCUCAUUAUUAGUGAUAUGUAC | -0.167 | 0.426 | -0.621 | -0.823
GUACAUGGGCACACUUUCUUAUGAACAAUUUAAGAAAGGUGUUCAGAUAC [DMSMaPseq_invitro_SARS-CoV-2_Motif_106] | 0.0305 | -0.639 | -0.353 | -0.377
GUACAUGGGCACACUUUCUUAUGAACAAUUUAAGAAAGGUGUUCAGAUACCUUGUAC [SHAPE_invitro_SARS-CoV-2_Motif_110] | -0.44 | -1.11 | -1.06 | -0.767
GUACCAAAGGUGC [IAV_invivo_PB1_2_Motif_35+IAV_invivo_PB1_2_Motif_35] | -0.26 | -0.382 | -0.215 | -0.101
GUACCUCAAGCUGAUGUAGAAUGGAAGUUCUAUGAUGCACAGCCUUGUAGUGAC [SHAPE_invitro_SARS-CoV-2_Motif_348] | -0.203 | 0.735 | -0.178 | -0.418
GUACGAUCGAGUGUAC [DMSMaPseq_invitro_SARS-CoV-2_Motif_538] | -0.222 | 0.0595 | 0.105 | 0.143
GUACUUAAUGAGAAGUGC [SHAPE_invivo_SARS-CoV-2_Motif_56] | -0.138 | -0.836 | -0.461 | -0.216
GUACUUGGUAGUUUAGCUGCCACAGUAC | -0.291 | -0.818 | -0.688 | -0.525

Sequence | pull-down binding Z-score [1] | pull-down binding Z-score [2] | pull-down binding Z-score [3] | pull-down binding Z-score [4]
GUAGACAAUUCUAGUCUUAC [SHAPE_invitro_SARS-CoV-2_Motif_131] | -0.243 | -0.316 | 0.441 | 0.702
GUAGAGGAGGCAAAGACAGUGCUUAAAAAGUGUAAAAGUGCCUUUUAC | 0.448 | 0.576 | -0.193 | -0.449
GUAUCUGAAUUAC | -0.196 | -0.281 | -0.136 | 0.0447
GUAUGAGCAGUAUAU [DMSMaPseq_invitro_SARS-CoV-2_Motif_451] | -0.295 | -0.416 | -0.709 | -0.638
GUCAAAGUGAC [SHAPE_invivo_SARS-CoV-2_Motif_385] | -0.543 | -0.851 | -0.434 | -0.196
GUCAAAGUGACUAUUGAC [SHAPE_invitro_SARS-CoV-2_Motif_373] | -0.444 | -0.385 | -0.53 | -0.385
GUCACACCUUCGGGAACGUGGUUGAC | -0.338 | 0.518 | -0.0943 | -0.558
GUCAGUGAAACACAGGGAACAGAGAAACUGAC [IAV_invivo_PB2_1_Motif_24+IAV_invivo_PB2_1_Motif_24] | 0.282 | 0.355 | -0.399 | -0.496
GUCCUAAAGUGAAGUAUUUAUACUUUAUUAAAGGAU [SHAPE_invivo_SARS-CoV-2_Motif_244] | -0.605 | -1.51 | -1.19 | -0.854
GUCCUAUUACGGAU | -0.505 | -1.55 | -1.37 | -0.9
GUCGCUACAGGAUUGGCAACUAUAAAUUAAACACAGACCAUUCCAGUAGCAGUGAC [SHAPE_invitro_SARS-CoV-2_Motif_494] | 0.215 | -0.283 | 0.0101 | 0.00722
GUCGUUGACAGGACACGAGUAACUCGUCUAUCUUCUGCAGGCUGC [SARS-CoV-2-Conserved-Structured-34_Interval-80-197_Motif_3] | 0.148 | 2.14 | 0.831 | -0.455
GUCUAAUCUCAAACCUUUUGAGAGAGAU | -0.695 | -1.07 | -1.19 | -0.801
GUCUAGCUGUCCACGAGUGCUUUGUUAAGCGUGUUGACUGGAC | -0.348 | -0.24 | -0.138 | -0.128
GUCUCCUACUAAAUUAAAUGAUCUCUGCUUUACUAAUGUCUAUGCAGAUUCAUUUGUAAUUAGAGGUGAU | -0.285 | -0.628 | -0.922 | -0.707
GUCUCGCACCCGCGAGAU [IAV_invivo_PB2_1_Motif_2+IAV_invivo_PB2_1_Motif_2] | -0.362 | -0.742 | 0.279 | 0.583
GUCUCUAUAGAAAUAGAGAU | -0.397 | -1.36 | -0.156 | 0.213
